B1: Small G protein signaling modulator 1 (Mus musculus), Q8BPQ7-1 (parent)
chain: MASVPAEAETRQRLLRTVKKEVKQIMEEAVTRKFVHEDSSHIISFCAAVEACVLHGLRRRAAGFLRSNKIAALFMKVGKGFPPAEELSRKVQELEQLIESARNQIQGLQENVRKLPKLPNLSPLAIKHLWIRTALFGRVLDKIVHYLVENSSKYYEKEALLMDPVDGPILASLLVGPCALEYTKMKTADHFWTDPSADELVQRHRIHSSHLRQDSPTKRPALCIQKRHSSGSMDDRPSISARDYVESLHQDSRATLLYGKNNVLVQPRDDMEAVPGYLSLHQTADVMTLKWTPNQLMNGSVGDLDYEKSVYWDYAVTIRLEEIVYLHCHQQVDSGGTVVLVSQDGIQRPPFRFPKGGHLLQFLSCLENGLLPHGQLDPPLWSQRGKGKVFPKLRKRSPQGSSESTSSDKEDDEATDYVFRIIYPGTQSEFVPQDLMDVSMNNLPPLWQPSPRKSSCSSCSQSGSADGGSTNGCNHERAPLKLLCDNMKYQILSRAFYGWLAYCRHLSTVRTHLSALVNHMIVSPDLPCDAGQGLTASIWEKYIQDSTTYPEQELLRLIYYGGVQPEIRRAVWPFLLGHYQFGMTEMERKEVDEQIHACYAQTMSEWLGCEAIVRQRERESHAAALAKCSSGASLDSHLHRMLHRDSTISNESSQSCSSGRQNLRLQSDSSSSTQVFESVDEVEQTEAEGRSEEKHPKIPNGNPANGTCSPDSGHPSSHNFSSGLSEHSEPSLSTEDSVLDAQRSLPAVFRPGDSSVEDGQSSEATTSRDEAPREELAVQDSLESDLLANESLEEFMSIPGSLDVALPEKDGAVMDGWPGEADKPSRADSEDNLSEEPEMESLFPALASLAVTSSANNEASPVSSSGVTYSPELLDLYTVNLHRIEKDVQRCDRSYWYFTAANLEKLRNIMCSYIWQHIEIGYVQGMCDLLAPLLVILDDEALAFSCFTELMKRMNQNFPHGGAMDTHFANMRSLIQILDSELFELMHQNGDYTHFYFCYRWFLLDFKRELVYDDVFSVWETIWAAKHVSSAHYVLFIALALVEVYRDIILENNMDFTDIIKFFNEMAERHNAKQILQLARDLVHKVQILIENK
partner: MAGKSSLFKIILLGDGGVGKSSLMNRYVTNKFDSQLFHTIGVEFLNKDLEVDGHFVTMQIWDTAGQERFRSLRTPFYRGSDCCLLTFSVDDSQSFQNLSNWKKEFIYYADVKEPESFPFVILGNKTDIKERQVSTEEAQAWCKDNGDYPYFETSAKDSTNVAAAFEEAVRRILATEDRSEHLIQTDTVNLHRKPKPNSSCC
B2: Ras-related protein Rab-9A (Mus musculus), Q9R0M6 (parent)
chain: B1 partner
partner: B1 chain

Variants of: B1
Details: with rab9a_mouse Rab9a

Variant	effect of a mutation on the interaction
N261A	disrupting interaction strength
K260A	disrupting interaction strength
L256A	disrupting interaction strength
N294A	disrupting interaction strength
Y277A	disrupting interaction strength
M297A	disrupting interaction strength

Variants of: B1
Details: with rab9a_mouse Rab9a
Remark: another data set of the same source

Variant	effect of a mutation on the interaction
K260A	decreasing interaction strength
L256A	decreasing interaction strength
M297A	decreasing interaction strength

Variants of: B2
Details: with Sgsm1, Q8BPQ7-1

Variant	effect of a mutation on the interaction
I40A	decreasing interaction strength
F44A	decreasing interaction strength
G41A	disrupting interaction strength
F76A	decreasing interaction strength
V42A	decreasing interaction strength
E43A	decreasing interaction strength
W61A	decreasing interaction strength
G41D	disrupting interaction strength

Variants of: B2
Details: with Sgsm1, Q8BPQ7-1
Remark: another data set of the same source

Variant	effect of a mutation on the interaction
G41A	decreasing interaction strength
G41D	decreasing interaction strength
F69A	decreasing interaction strength
L72A	decreasing interaction strength

Reference: IntAct's records for PubMed 25220469
